Experimental data taken from patent US20230137032A1 (GlaxoSmithKline, published 2023).
Values joined by “and” are separate entries in the source; they are usually repeats but may differ in a detail not shown here. Equal entries are not always repeated.

How the values were obtained:
[1] = target: T1, human BCMA expressed on cells (human, UniProt Q02223 1-184); test: cell-based or functional assay
T1 sequence (looked up): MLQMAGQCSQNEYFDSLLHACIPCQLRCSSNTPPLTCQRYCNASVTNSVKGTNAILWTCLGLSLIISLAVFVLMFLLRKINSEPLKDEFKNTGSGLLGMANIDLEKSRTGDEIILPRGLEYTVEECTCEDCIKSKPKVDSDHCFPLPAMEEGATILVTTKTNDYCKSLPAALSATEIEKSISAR

[2] = target: T2, recombinant human BCMA Fc 4-53 (human); test: ELISA, neutralisation of ligand binding to plate-coated BCMA Fc 4-53; competitor APRIL; competitor APRIL
T2 construct: also called Human BCMA CD33-hBCMA ECD (4-53) TEV-Fc; recombinant BCMA
Procedure: (§1) 96 well flat bottomed plates were coated overnight with 1 μg/mL solution of recombinant human BCMA Fc 4-53 in PBS. Following a wash step using 0.05% TWEEN20, plates were blocked with 2% Bovine Serum Albumin solution in PBS for 1 hour at room temperature. […] 40 μL of 2% BSA was added to the relevant control wells. […] Equivalent volume of 2% BSA was added to the relevant control wells. Plates were allowed to incubate for 2 hours at room temperature, after which they were washed as before. […] Following a wash step, 50 µL of a 1:4000 dilution of Streptavidin-HRP (Amersham RPN4401) was added to each well and incubated for 30 minutes at room temperature. The wash process was repeated again followed by the addition of […] of Tetramethylbenzidine substrate solution (T8665, Sigma) into each well. Plates were incubated for 20-25 minutes at room temperature, wrapped in foil. The reaction was stopped with the addition of […] of 1M H₂SO₄. Optical density was determined at 450 nm using Spectromax reader.

[3] = target: T3, recombinant human BCMA, commercial (US Biological, B0410) (human, UniProt Q02223 5-54, limits assumed); test: ProteOn SPR run 2, antibody captured on Protein A, 25C
T3 construct: also called commercial human BCMA; Human commercial BCMA
T3 chain (looked up): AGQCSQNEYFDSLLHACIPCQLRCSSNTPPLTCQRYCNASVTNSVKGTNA

[4] = target: T3, recombinant human BCMA, commercial (US …); test: Biacore T100, antibody captured on Protein A, 37C, experiment 2
Procedure: (§2) Protein A was immobilised on a CMS chip (GE Healthcare, Cat No: BR-1005-30) by primary amine coupling and this surface was then used to capture the antibody molecules. Recombinant human BCMA (US Biological, B0410) was used as analyte at 256 nM, 64 nM, 16 nM, 4 nM and 1 nM. Regeneration of the capture surface was carried out using 50 mM NaOH. All binding curves were double referenced with a buffer injection (i.e. 0 nM) the data was fitted to the using the 1:1 model inherent to T100 evaluation software. The run was carried out at 25° C. and 37° C. for experiment 1 and only 37° C. for experiment 2 using HBS-EP as the running buffer.

[5] = target: T3, recombinant human BCMA, commercial (US …); test: Biacore T100, antibody captured on Protein A, 37C
[6] = target: T4, recombinant cyno BCMA, in house material (cyno, UniProt A0A2K5UD97 4-52); test: Biacore T100, antibody captured on Protein A, 37C
T4 construct: also called Cyno in house BCMA

[7] = target: T2, recombinant human BCMA Fc 4-53; test: competition ELISA: binding of recombinant human BAFF to coated recombinant human BCMA Fc 4-53, biotinylated anti-BAFF and streptavidin-HRP, % of control
Procedure: as §1

[8] = target: T1, human BCMA expressed on cells; test: FACS on U266 cells, PE anti-human IgG, MFI
Procedure: (§3) Cells were then washed with FACS buffer (PBS+0.5% BSA+0.1% sodium azide) to remove unbound antibody. Cells were incubated with a secondary PE labelled anti-human IgG antibody for 15 minutes at RT and then washed with FACS buffer to remove unbound antibody. Cells were analysed by FACS and mean fluorescence intensity (MFI) values measured to determine binding.

[9] = target: T2, recombinant human BCMA Fc 4-53; test: competition ELISA: binding of recombinant human APRIL to coated recombinant human BCMA Fc 4-53, biotinylated anti-APRIL and streptavidin-HRP, % of control
Procedure: as §1

[10] = target: T1, human BCMA expressed on cells; test: FACS on JJN-3 cells, PE anti-human IgG, MFI
Procedure: as §3

[11] = target: T4, recombinant cyno BCMA, in house material; test: ProteOn SPR run 1, antibody captured on Protein A, 25C
[12] = target: T1, human BCMA expressed on cells; test: FACS on H929 cells, PE anti-human IgG, MFI
Procedure: as §3

[13] = target: T3, recombinant human BCMA, commercial (US …); test: Biacore T100, antibody captured on Protein A, 25C, experiment 1
Procedure: as §2

[14] = target: T1, human BCMA expressed on cells; test: FMAT cell binding on HEK293 cells transfected with human BCMA, anti-human IgG FMAT Blue detection
Procedure: Cryopreserved transfected human, cyno BCMA and mock transfected HEK293 cells were recovered from LN2 storage. […] The assay plates were left for a minimum of 90 minutes before the result was read on the ABI8200 (FMAT) plate reader.

[15] = target: T5, cyno BCMA-Fc (cyno); test: ELISA on coated cyno BCMA-Fc, anti-human IgG HRP, TMB
T5 construct: also called Cyno BCMA CD33 cyno BCMA ECD (4-52) TEV-Fc; recombinant cyno BCMA
Procedure: Human BCMA-Fc and cyno BCMA-Fc were coated to ELISA plates and the plates were blocked using BSA to reduce non specific binding. CA8 chimeric antibodies were added in a concentration range from 5 ug/ml to 0.1 ug/ml to the human and cyno BCMA coated ELISA plates. […] HRP substrate (TMB) was added to develop the ELISA.

B1: CA8 chimera antibody (human chimeric CA8) (antibody, V domains shown)
VH: EVQLQQSGAVLARPGASVKMSCKGSGYTFTNYWMHWVKQRPGQGLEWIGATYRGHSDTYYNQKFKGKAKLTAVTSTSTAYMELSSLTNEDSAVYYCTRGAIYNGYDVLDNWGQGTLVTVSS
VL: DIQLTQTTSSLSASLGDRVTISCSASQDISNYLNWYQQKPDGTVELVIYYTSNLHSGVPSRFSGSGSGTDYSLTIGYLEPEDVATYYCQQYRKLPWTFGGGSKLEIKR
notes: also called Chimera CA8; CA8 chimeric antibody
APRIL induced IC50 (phosphorylated NFkappaB in H-929 cells, MSD assay) [1]: 38.5 ug/ml and 257 nM | BAFF induced IC50 (phosphorylated NFkappaB in H-929 cells, MSD assay) [1]: 1.5 ug/ml and 10 nM | EC50 [2]: 0.773 µg/mL | Kd [3]: 0.139 nM | Kd [4]: 0.055 nM | Kd [5]: 0.036 nM | Kd [6]: 0.305 nM | IC50 (read off the curve) [7]: ~0.7 µg/mL | EC50 (read off the curve) [8]: ~0.3 µg/mL | IC50 (read off the curve) [9]: ~0.8 µg/mL | EC50 (read off the curve) [10]: ~0.2 µg/mL | Kd [11]: 0.457 nM | EC50 (read off the curve) [12]: ~0.3 µg/mL | Kd [13]: 0.14 nM | EC50 (read off the curve) [14]: ~0.4 µg/mL | binding result [15]: binds
